The array DNA melting data of Ke et al.

Test: melting temperature; melt of duplexes
Conditions: sodium 0.0675 M; strand 1 µM

| Substance | Tm [°C] |
| --- | --- |
| CGACGTGCGACATGTGCTG+CAGCACATCCGGCACGTCG ((((((((...((((((((+))))))))...)))))))) | 48.9 |
| CGACGTGCATAATGTGCTG+CAGCACATGTCGCACGTCG ((((((((...((((((((+))))))))...)))))))) | 52.2 |
| CGACGTGCAGTATGTGCTG+CAGCACATCACGCACGTCG ((((((((...((((((((+))))))))...)))))))) | 50.9 |
| CGACGTGCGCCATGTGCTG+CAGCACATAGAGCACGTCG ((((((((.(.((((((((+)))))))).).)))))))) | 54.4 |
| CGACGTGCTTAATGTGCTG+CAGCACATATGGCACGTCG ((((((((...((((((((+))))))))...)))))))) | 51.4 |
| CGACGTGCTTCATGTGCTG+CAGCACATGCAGCACGTCG (((((((((.(((((((((+))))))))).))))))))) | 56.9 |
| CGACGTGCACCATGTGCTG+CAGCACATGTGGCACGTCG ((((((((..(((((((((+)))))))))..)))))))) | 53.4 |
| CGACGTGCAGTATGTGCTG+CAGCACATTGTGCACGTCG (((((((((..((((((((+))))))))..))))))))) | 48.6 |
| CGACGTGCCGCATGTGCTG+CAGCACATGCCGCACGTCG ((((((((.((((((((((+)))))))))).)))))))) | 58.9 |
| CGACGTGCTAGATGTGCTG+CAGCACATATTGCACGTCG ((((((((.(.((((((((+)))))))).).)))))))) | 52.5 |
| CGACGTGCGCGATGTGCTG+CAGCACATCGCGCACGTCG (((((((((((((((((((+))))))))))))))))))) | 69.3 |
| CGACGTGCAAGATGTGCTG+CAGCACATTGGGCACGTCG ((((((((...((((((((+))))))))...)))))))) | 51.5 |
| CGACGTGCAGGATGTGCTG+CAGCACATCCAGCACGTCG ((((((((.((((((((((+)))))))))).)))))))) | 59.8 |
| CGACGTGCGCGATGTGCTG+CAGCACATACAGCACGTCG ((((((((...((((((((+))))))))...)))))))) | 51.7 |
| CGACGTGCTGGATGTGCTG+CAGCACATATTGCACGTCG ((((((((...((((((((+))))))))...)))))))) | 50.9 |
| CGACGTGCACGATGTGCTG+CAGCACATGCCGCACGTCG ((((((((...((((((((+))))))))...)))))))) | 44.4 |
| CGACGTGCAAGATGTGCTG+CAGCACATTCCGCACGTCG ((((((((...((((((((+))))))))...)))))))) | 49.4 |
| CGACGTGCGGCATGTGCTG+CAGCACATGTGGCACGTCG ((((((((..(((((((((+)))))))))..)))))))) | 56.8 |
| CGACGTGCCAAATGTGCTG+CAGCACATAGAGCACGTCG ((((((((...((((((((+))))))))...)))))))) | 49.1 |
| CGACGTGCCTGATGTGCTG+CAGCACATACCGCACGTCG ((((((((...((((((((+))))))))...)))))))) | 48.1 |
| CGACGTGCATGATGTGCTG+CAGCACATTCAGCACGTCG ((((((((...((((((((+))))))))...)))))))) | 51.1 |
| CGACGTGCAATATGTGCTG+CAGCACATCAGGCACGTCG ((((((((...((((((((+))))))))...)))))))) | 48.7 |
| CGACGTGCTAAATGTGCTG+CAGCACATGACGCACGTCG ((((((((...((((((((+))))))))...)))))))) | 50.2 |
| CGACGTGCGATATGTGCTG+CAGCACATGCCGCACGTCG (((((((((..((((((((+))))))))..))))))))) | 54.8 |

| Substance | Tm [°C] |
| --- | --- |
| CGACGTGCCAAATGTGCTG+CAGCACATGAGGCACGTCG (((((((((..((((((((+))))))))..))))))))) | 57.3 |
| CGACGTGCTTTATGTGCTG+CAGCACATACTGCACGTCG ((((((((..(((((((((+)))))))))..)))))))) | 50.3 |
| CGACGTGCCAAATGTGCTG+CAGCACATAAAGCACGTCG ((((((((...((((((((+))))))))...)))))))) | 49.9 |
| CGACGTGCCACATGTGCTG+CAGCACATGGGGCACGTCG (((((((((.(((((((((+))))))))).))))))))) | 63.6 |
| CGACGTGCGCCATGTGCTG+CAGCACATTACGCACGTCG (((((((((..((((((((+))))))))..))))))))) | 52.3 |
| CGACGTGCGCCATGTGCTG+CAGCACATGATGCACGTCG ((((((((..(((((((((+)))))))))..)))))))) | 54.9 |
| CGACGTGCGGTATGTGCTG+CAGCACATTTGGCACGTCG ((((((((...((((((((+))))))))...)))))))) | 49.9 |
| CGACGTGCCAAATGTGCTG+CAGCACATGCAGCACGTCG ((((((((...((((((((+))))))))...)))))))) | 52.7 |
| CGACGTGCCGCATGTGCTG+CAGCACATCGTGCACGTCG ((((((((...((((((((+))))))))...)))))))) | 50.5 |
| CGACGTGCTCCATGTGCTG+CAGCACATCGGGCACGTCG ((((((((.(.((((((((+)))))))).).)))))))) | 51.2 |
| CGACGTGCCCTATGTGCTG+CAGCACATATGGCACGTCG (((((((((.(((((((((+))))))))).))))))))) | 55.8 |
| CGACGTGCTTGATGTGCTG+CAGCACATAAGGCACGTCG ((((((((.(.((((((((+)))))))).).)))))))) | 52.3 |
| CGACGTGCGGAATGTGCTG+CAGCACATTCTGCACGTCG ((((((((.((((((((((+)))))))))).)))))))) | 61.1 |
| CGACGTGCTGTATGTGCTG+CAGCACATGCCGCACGTCG ((((((((.(.((((((((+)))))))).).)))))))) | 52.8 |
| CGACGTGCTAGATGTGCTG+CAGCACATGCCGCACGTCG ((((((((...((((((((+))))))))...)))))))) | 49.2 |
| CGACGTGCTTTATGTGCTG+CAGCACATCCAGCACGTCG (((((((((..((((((((+))))))))..))))))))) | 49.4 |
| CGACGTGCTTTATGTGCTG+CAGCACATAAAGCACGTCG (((((((((((((((((((+))))))))))))))))))) | 61 |
| CGACGTGCGCAATGTGCTG+CAGCACATGCCGCACGTCG (((((((((..((((((((+))))))))..))))))))) | 56.6 |
| CGACGTGCGCCATGTGCTG+CAGCACATATTGCACGTCG ((((((((...((((((((+))))))))...)))))))) | 47.3 |
| CGACGTGCATCATGTGCTG+CAGCACATCGTGCACGTCG (((((((((..((((((((+))))))))..))))))))) | 47.2 |
| CGACGTGCTTCATGTGCTG+CAGCACATCGTGCACGTCG ((((((((...((((((((+))))))))...)))))))) | 43.2 |
| CGACGTGCCCCATGTGCTG+CAGCACATAACGCACGTCG ((((((((...((((((((+))))))))...)))))))) | 45.7 |
| CGACGTGCGCCATGTGCTG+CAGCACATGGAGCACGTCG ((((((((.((((((((((+)))))))))).)))))))) | 62.3 |
| CGACGTGCTACATGTGCTG+CAGCACATCGAGCACGTCG (((((((((..((((((((+))))))))..))))))))) | 51.6 |

| Substance | Tm [°C] |
| --- | --- |
| CGACGTGCGTTATGTGCTG+CAGCACATACAGCACGTCG ((((((((..(((((((((+)))))))))..)))))))) | 53.3 |
| CGACGTGCTTTATGTGCTG+CAGCACATGTCGCACGTCG ((((((((...((((((((+))))))))...)))))))) | 47.8 |
| CGACGTGCCCGATGTGCTG+CAGCACATTGGGCACGTCG ((((((((((.((((((((+)))))))).)))))))))) | 62.4 |
| CGACGTGCTCGATGTGCTG+CAGCACATATGGCACGTCG ((((((((...((((((((+))))))))...)))))))) | 50.5 |
| CGACGTGCACGATGTGCTG+CAGCACATTACGCACGTCG ((((((((...((((((((+))))))))...)))))))) | 46 |
| CGACGTGCTCAATGTGCTG+CAGCACATCCAGCACGTCG (((((((((..((((((((+))))))))..))))))))) | 50.5 |
| CGACGTGCATCATGTGCTG+CAGCACATGTGGCACGTCG ((((((((..(((((((((+)))))))))..)))))))) | 55 |
| CGACGTGCAATATGTGCTG+CAGCACATCGCGCACGTCG ((((((((...((((((((+))))))))...)))))))) | 47.4 |
| CGACGTGCGCAATGTGCTG+CAGCACATGATGCACGTCG ((((((((...((((((((+))))))))...)))))))) | 52.5 |
| CGACGTGCGTTATGTGCTG+CAGCACATAAAGCACGTCG ((((((((.((((((((((+)))))))))).)))))))) | 56 |
| CGACGTGCCTTATGTGCTG+CAGCACATGACGCACGTCG ((((((((.(.((((((((+)))))))).).)))))))) | 45.4 |
| CGACGTGCGCGATGTGCTG+CAGCACATAACGCACGTCG (((((((((..((((((((+))))))))..))))))))) | 54.4 |
| CGACGTGCAGAATGTGCTG+CAGCACATGCCGCACGTCG ((((((((.(.((((((((+)))))))).).)))))))) | 54.6 |
| CGACGTGCTATATGTGCTG+CAGCACATATCGCACGTCG ((((((((.((((((((((+)))))))))).)))))))) | 54.9 |
| CGACGTGCGTCATGTGCTG+CAGCACATCTCGCACGTCG (((((((((..((((((((+))))))))..))))))))) | 52.4 |
| CGACGTGCCCCATGTGCTG+CAGCACATGGTGCACGTCG ((((((((.((((((((((+)))))))))).)))))))) | 56.7 |
| CGACGTGCAATATGTGCTG+CAGCACATTTAGCACGTCG ((((((((.(.((((((((+)))))))).).)))))))) | 50.8 |
| CGACGTGCAGAATGTGCTG+CAGCACATGCTGCACGTCG ((((((((((.((((((((+)))))))).)))))))))) | 58.6 |
| CGACGTGCTACATGTGCTG+CAGCACATACTGCACGTCG ((((((((...((((((((+))))))))...)))))))) | 49.3 |
| CGACGTGCCGCATGTGCTG+CAGCACATTCGGCACGTCG ((((((((((.((((((((+)))))))).)))))))))) | 59.1 |
| CGACGTGCATTATGTGCTG+CAGCACATACTGCACGTCG (((((((((.(((((((((+))))))))).))))))))) | 53.8 |
| CGACGTGCGGTATGTGCTG+CAGCACATAATGCACGTCG ((((((((..(((((((((+)))))))))..)))))))) | 54.6 |
| CGACGTGCACGATGTGCTG+CAGCACATTCCGCACGTCG ((((((((...((((((((+))))))))...)))))))) | 44.5 |
| CGACGTGCGTTATGTGCTG+CAGCACATAACGCACGTCG (((((((((((((((((((+))))))))))))))))))) | 63.6 |
